According to patent US10913773B2, “Bicyclic peptidyl inhibitor of tumor necrosis factor-alpha” (Ohio State Innovation Foundation, priority 2016, dated 2021):
Like-named read-outs stand apart in the source and are kept apart here. Starred links: 1 amine or outer side, 2 acyl side, 3 side chain; linkers in the order of their positions; H or OH if unused. Positions of bridges follow the written chain, without caps; N, C: chain ends. Non-standard residues stand in square brackets, D forms with d. Residues, ends and D or L forms follow the SMILES beside them. Primed or numbered codes have the meaning given here. No end group written: not given here. *: point of attachment. FITC = O=C1OC2(c3ccc(O)cc3Oc3cc(O)ccc32)c2ccc(NC(=S)*)cc21; FITC″ = Lys(FITC) = N6-fluorescein-thiocarbamoyl-L-lysine; Trimesoyl = O=C(c1cc(C(=O)[*:2])cc(C(=O)[*:3])c1)[*:1]; trimesoyl″ = benzene-1,3,5-tricarbonyl scaffold; FITC′ = fluorescein isothiocyanate, on Lys NZ; Phe(3,4-F2) = N[C@@H](Cc1ccc(F)c(F)c1)C(=O)O; Phe(4-Cl) = N[C@@H](Cc1ccc(Cl)cc1)C(=O)O; Phe(4-F) = N[C@@H](Cc1ccc(F)cc1)C(=O)O; 2Nal = N[C@@H](Cc1ccc2ccccc2c1)C(=O)O; trimesoyl = benzene-1,3,5-tricarbonyl; β3hV = CC(C)[C@H](N)CC(=O)O; 3Abz = Nc1cccc(C(=O)O)c1; Nle = CCCC[C@H](N)C(=O)O; Dap = NC[C@H](N)C(=O)O; βAla = NCCC(=O)O; Sar = CNCC(=O)O

Tests used:
[1] = molecular target: T1, TNFα-TNFR1 interaction (Homo sapiens, UniProt P01375); assay: ELISA inhibition of TNFα-TNFR1 interaction (immobilized biotinylated TNFα, TNFR1-HRP); assay type: binding
T1 construct: made in house; host or cells: Escherichia coli (TNFα)
Description: Inhibition of TNFα-TNRF1 interaction by ELISA was carried out as previously described (Lian, W.; et al., supra).
Because of its high-throughput capability, FA analysis had been used to generate all of the SAR data described above. […] To confirm the SAR data obtained by FA analysis, some of the compounds in Table 5 (as well as new compounds) were resynthesized without the Lys(FITC) label and employed a more sensitive ELISA-based assay to determine the IC50 values for inhibition of the TNFα-TNFR1 interaction. Briefly, biotinylated TNFα was immobilized onto a NeutrAvidin-coated surface. TNFR1 conjugated with horseradish peroxidase (HRP) (0.5 nM) was added along with different concentrations of a peptide inhibitor. After washing, the amount of bound TNFR1-HRP was quantitated by ELISA. […] In agreement with the FA results, either extension at the C-terminus of β-Ala with another amino acid (C1-67 to C1-70) or side-chain modification of β-Ala (C1-71 to C1-73) decreased TNFα binding.

[2] = molecular target: T2, Recombinant TNFα containing an N-terminal 13-aa ybbR tag (human, UniProt P01375 77-233, biotin at the ybbR tag in the ELISA assays); assay: FA, FITC-peptide + TNFα titration
T2 construct: Expressed in E. coli; Same construct used unlabelled (FA) and biotinylated on NeutrAvidin (ELISA); also called tumor necrosis factor-alpha; human TNFα; not shown: N-terminal 13-aa ybbR tag
T2 sequence (P01375 77-233): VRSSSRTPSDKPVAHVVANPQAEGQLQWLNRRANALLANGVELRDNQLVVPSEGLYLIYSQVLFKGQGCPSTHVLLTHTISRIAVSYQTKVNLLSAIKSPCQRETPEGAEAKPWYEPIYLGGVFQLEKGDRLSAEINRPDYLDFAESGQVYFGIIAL
Description: (§1) The FA values were measured on a Molecular Devices Spectramax M5 spectrofluorimeter, with excitation and emission wavelengths at 485 and 525 nm, respectively. Equilibrium dissociation constants (KD) were determined by plotting the FA values as a function of TNFα concentration and fitting the data to the following equation $$Y = \frac{\left(Amin + \left(Amax \times \frac{Q_b}{Q_f} - Amin\right)\left(\frac{(L+x+K_d) - \sqrt{((L+x+K_d)^2 - 4Lx)}}{2L}\right)\right)}{\left(1 + \left(\frac{Q_b}{Q_f} - 1\right)\left(\frac{(L+x+K_d) - \sqrt{((L+x+K_d)^2 - 4Lx)}}{2L}\right)\right)}$$
(§2) where Y is the measured anisotropy at a given TNFα concentration x; L is the bicyclic peptide concentration; Qb/Qf is the correction fact for dye-protein interaction; Amax is the maximum anisotropy when all the peptides are bound to TNFα, while $Amin$ is the minimum anisotropy. […] The FA values were plotted against the competitor peptide concentration to determine the IC$50$ values.

[3] = molecular target: T2, Recombinant TNFα containing an …; assay: FA
Description: as §1, §2

[4] = molecular target: T2, Recombinant TNFα containing an …; assay: FA, FITC-peptide + TNFα titration; remark: listed apart in the source
Description: as §1, §2

[5] = Table 5, peptides without Lys(FITC) label
[6] = inhibition of TNFα-TNFR1 interaction, unlabeled peptides

## CCCC[C@@H]1NC(=O)c2cc3cc(c2)C(=O)NC[C@@H](C(=O)N[C@H](CC(N)=O)C(C)C)NC(=O)[C@H](Cc2c[nH]cn2)NC(=O)[C@@H](CCCCN)NC(=O)CNC(=O)[C@@H](Cc2c[nH]cn2)NC(=O)[C@H](Cc2c[nH]c4ccccc24)NC(=O)[C@H](CCCCNC3=O)NC(=O)[C@@H](CO)NC(=O)[C@H](Cc2ccc(O)cc2)NC1=O [Compound C1-71] ([Nle]Y[dS]KW[dH]G[dK]H[Dap][β3hV]-NH2; linker N-4-10 via Trimesoyl)
[1]; [5]
  IC50: 2400 ± 1300 nM

## CC(=O)C[C@H](CCc1ccccc1)NC(=O)[C@@H](CC(N)=O)NC(=O)C(N)Cc1ccccc1F (some centres unmarked) [Compound C1-74-4]
[1]; [6]
  IC50: 30 nM
[1]; relative to C1-74
  Improvement of IC50 over C1-74 (fold): ~2 fold

## CC(=O)[C@@H](Cc1ccc(O)cc1)NC(=O)[C@@H](CC(=O)O)NC(=O)C(N)CC(=O)O (some centres unmarked) [Compound C1-74-5]
[1]; [6]
  IC50: 1350 ± 490 nM

## CCCC[C@@H]1NC(=O)c2cc3cc(c2)C(=O)NC[C@@H](C(=O)NCCC(N)=O)NC(=O)[C@H](Cc2c[nH]cn2)NC(=O)[C@@H](CCCCN)NC(=O)CNC(=O)[C@@H](Cc2c[nH]cn2)NC(=O)[C@H](Cc2c[nH]c4ccccc24)NC(=O)[C@H](CCCCNC3=O)NC(=O)[C@@H](CO)NC(=O)[C@H](Cc2ccc(O)cc2)NC1=O [Compound C1-66] ([Nle]Y[dS]KW[dH]G[dK]H[Dap][βAla]-NH2; linker N-4-10 via Trimesoyl)
[1]; [6]
  IC50: 85 nM

## CCCC[C@@H]1NC(=O)c2cc3cc(c2)C(=O)NC[C@@H](C(=O)NCCC(=O)N[C@H](Cc2ccccc2)C(N)=O)NC(=O)[C@H](Cc2c[nH]cn2)NC(=O)[C@@H](CCCCN)NC(=O)CNC(=O)[C@@H](Cc2c[nH]cn2)NC(=O)[C@H](Cc2c[nH]c4ccccc24)NC(=O)[C@H](CCCCNC3=O)NC(=O)[C@@H](CO)NC(=O)[C@H](Cc2ccc(O)cc2)NC1=O [Compound C1-70] ([Nle]Y[dS]KW[dH]G[dK]H[Dap][βAla][dF]-NH2; linker N-4-10 via Trimesoyl)
[1]; [5]
  IC50: > 10000 nM

## CCCC[C@@H]1NC(=O)c2cc3cc(c2)C(=O)NC[C@@H](C(=O)NCCC(=O)N[C@@H](Cc2ccccc2)C(N)=O)NC(=O)[C@H](Cc2c[nH]cn2)NC(=O)[C@@H](CCCCN)NC(=O)CNC(=O)[C@@H](Cc2c[nH]cn2)NC(=O)[C@H](Cc2c[nH]c4ccccc24)NC(=O)[C@H](CCCCNC3=O)NC(=O)[C@@H](CO)NC(=O)[C@H](Cc2ccc(O)cc2)NC1=O [Compound C1-69] ([Nle]Y[dS]KW[dH]G[dK]H[Dap][βAla]F-NH2; linker N-4-10 via Trimesoyl)
[1]; [5]
  IC50: 1300 ± 1100 nM

## CCCC[C@@H]1NC(=O)c2cc3cc(c2)C(=O)NC[C@@H](C(=O)Nc2cccc(C(N)=O)c2)NC(=O)[C@H](Cc2c[nH]cn2)NC(=O)[C@@H](CCCCN)NC(=O)CNC(=O)[C@@H](Cc2c[nH]cn2)NC(=O)[C@H](Cc2c[nH]c4ccccc24)NC(=O)[C@H](CCCCNC3=O)NC(=O)[C@@H](CO)NC(=O)[C@H](Cc2ccc(O)cc2)NC1=O [Compound C1-73] ([Nle]Y[dS]KW[dH]G[dK]H[Dap][3Abz]-NH2; linker N-4-10 via Trimesoyl)
[1]; [5]
  IC50: 1700 ± 700 nM

## [Nle]Y[dS]KY[dH][Sar][dK]H[Dap]K(FITC)-NH2 (linker N-4-10 via trimesoyl″) [C1-43]
[2]
  Kd: 330 nM
[3]
  fold effect on affinity against Gly-7: 2 fold

## [Nle][Phe(3,4-F2)][dS]KY[dF]G[dK]H[Dap]K(FITC)-NH2 (linker N-4-10 via trimesoyl″) [C1-25]
[4]
  Kd: 5400 nM

## [Nle]Y[dS]K[Phe(4-Cl)][dH]G[dK]H[Dap]K(FITC)-NH2 (linker N-4-10 via trimesoyl″) [C1-34]
[4]
  Kd: 1600 nM

## [Nle]Y[dS]K[Phe(4-F)][dH]G[dK]H[Dap]K(FITC)-NH2 (linker N-4-10 via trimesoyl″) [C1-33]
[4]
  Kd: 760 nM

## [Nle]Y[dS]KW[dH]G[dK]H[Dap]RK(FITC)-NH2 (linker N-4-10 via trimesoyl″, C1-35 core with R11 as printed) [C1-53]
[3]
  fold reduction in affinity against C1-35: > 40 fold

## [Nle]Y[dS]K[2Nal][dH]G[dK]H[Dap]K(FITC)-NH2 (linker N-4-10 via trimesoyl″) [C1-36]
[4]
  Kd: 1300 nM

## [Nle]Y[dS]KY[dF]G[dK]H[Dap]K(FITC′)-NH2 (bridge N-4-10 via trimesoyl″; not fully specified (N-terminus)) [C1-11]
[2]
  Kd: 1500 nM
[4]
  Kd: 1500 nM
[3]
  fold reduction in affinity against D-Ala at position-3: ~2 fold

## [Nle]Y[dS]KW[dH]G[dK]F[Dap]K(FITC)-NH2 (linker N-4-10 via trimesoyl″) [C1-50]
[2]
  Kd: 7500 nM
[3]
  fold reduction in affinity against His at position-9: ~30 fold

## [Nle]Y[dS]KW[dH]V[dK]H[Dap]K(FITC)-NH2 (linker N-4-10 via trimesoyl″) [C1-46]
[2]
  Kd: 880 nM
[3]
  fold loss of binding against Gly-7: 3 to 6 fold

## [Nle]Y[dS]KY[dH]G[dK]H[Dap]K(FITC)-NH2 (linker N-4-10 via trimesoyl″) [C1-30]
[2]
  Kd: 760 nM
[4]
  Kd: 760 nM
[3]
  fold improvement in affinity against D-Phe at position-6: ~2 fold

## [Nle]Y[dS]KY[dH]A[dK]H[Dap]K(FITC)-NH2 (linker N-4-10 via trimesoyl″) [C1-44]
[2]
  Kd: 320 nM
[3]
  fold effect on affinity against Gly-7: 2 fold

## [Nle]Y[dA]KY[dF]G[dK]H[Dap]K(FITC)-NH2 (linker N-4-10 via trimesoyl″) [C1-5]
[2]
  Kd: 850 nM
[3]
  fold better binding against C1: ~2 fold

## [Nle]Y[dS]KW[dH]S[dK]H[Dap]K(FITC)-NH2 (linker N-4-10 via trimesoyl″) [C1-45]
[2]
  Kd: 420 nM
[3]
  fold effect on affinity against Gly-7: 2 fold

## [Nle]Y[dS]KW[dH]L[dK]H[Dap]K(FITC)-NH2 (linker N-4-10 via trimesoyl″) [C1-47]
[2]
  Kd: 1700 nM
[3]
  fold loss of binding against Gly-7: 3 to 6 fold

## GY[dA]KY[dF]G[dK]H[Dap]K(FITC′)-NH2 (bridge N-4-10 via trimesoyl″; not fully specified (N-terminus)) [C1-1]
[2]
  Kd: 7100 nM
[3]
  fold decrease in TNFα binding against C1 (Phg at position-1): ≥ 5 fold

## NY[dA]KY[dF]G[dK]H[Dap]K(FITC″)-NH2 (linker N-4-10 via trimesoyl) [C1-9]
[2]
  Kd: 7900 nM
[3]
  fold decrease in TNFα binding against C1 (Phg at position-1): ≥ 5 fold

## DY[dA]KY[dF]G[dK]H[Dap]K(FITC″)-NH2 (linker N-4-10 via trimesoyl) [C1-8]
[2]
  Kd: 7000 nM
[3]
  fold decrease in TNFα binding against C1 (Phg at position-1): ≥ 5 fold

## TY[dA]KY[dF]G[dK]H[Dap]K(FITC″)-NH2 (linker N-4-10 via trimesoyl) [C1-7]
[2]
  Kd: 7200 nM
[3]
  fold decrease in TNFα binding against C1 (Phg at position-1): ≥ 5 fold

B1: C1-10 (peptide)
peptide: RY[dA]KY[dF]G[dK]H[Dap]K(FITC′)-NH2
modifications: bridge (positions not given here) via trimesoyl″; not fully specified (N-terminus, bridges)
[3]
  fold decrease in TNFα binding against C1 (Phg at position-1): ≥ 5 fold

## SY[dA]KY[dF]G[dK]H[Dap]K(FITC)-NH2 (linker N-4-10 via trimesoyl″) [C1-6]
[2]
  Kd: 6200 nM
[3]
  fold decrease in TNFα binding against C1 (Phg at position-1): ≥ 5 fold
